Data: US20170112908A1

Target: polyclonal antibodies in mouse sera specific for human PCSK9 aa 153-162 or aa 153-165
Assay: competition ELISA, 20 ug peptide with sera, plate coated with m2 (competitor)

| Binder | % Competition compared to the related control group [%] |
| --- | --- |
| VIPWNLERIQ | 47 |
| SIPWDLERITPPR | 74 |
| SIPWSLERIT | 73 |
| SIPHNLERIT | 0 |
| SIPWNLARIT | 13 |
| SIPWALERIT | 75 |
| SIPWNLEDIT | 13 |
| SIPDNLERIT | 3 |
| SIPWNLERIA | 80 |
| SQPWSLERTL | 53 |
| SIPWNLERITPNR | 70 |
| AIPWNLERIT | 88 |
| SIPWNLERITPAR | 74 |
| SIPWNLERITPVR | 75 |
| SIPWNDERIT | 71 |
| SVPWNLERIQ | 61 |

| Binder | % Competition compared to the related control group [%] |
| --- | --- |
| VIPWNLERIT | 51 |
| SIPWNLERAT | 77 |
| SVPWNLERIT | 62 |
| SIPWNLDRITPPR | 53 |
| SIVWNLERITPPR | 78 |
| SIAWNLERIT | 78 |
| SIPWNLERISPPR | 79 |
| SIPWNLERIL | 56 |
| SIPSNLERIT | 7 |
| VIPWNLERIL | 49 |
| VIPWNLERTT | 69 |
| SIPANLERIT | 8 |
| SVPWNLERIL | 59 |
| SIPWNLERTT | 73 |
| SIPWNLERITPPS | 66 |
| SIPWSLERIQ | 44 |

Further lines, results first:

| % Competition compared to the related control group [%] | Binder |
| --- | --- |
| 0 | ITELSRWPNI |
| 0 | ERTKSDPGAQHREF |
| 11 | SVPWNLEKLT |
| 79 | SIPWNFERITPPR |
| 54 | VIPWNLERLT |
| 66 | VQPWSLERLL |
| 66 | SQPWNLERIQ |
| 52 | SIPWNGERIT |
| 62 | SITWNLERIT |
| 48 | VQPWSLERTL |
| 69 | SQPWNLERLT |
| 0 | SIPGNLERIT |
| 73 | SIPWNAERIT |
| 69 | SQPWNLERIL |
| 73 | SIPWNLERITPTR |
| 66 | SIPWNLERITPPK |
| 78 | SIPWNVERITPPR |
| 70 | SIPWNLERITAPR |
| 30 | SQPWNLERIT |
| 57 | SVPWNLERLT |
| 74 | SVPWSLERLT |
| 54 | SGPWNLERITPPR |
| 79 | SIPWQLERITPPR |
| 52 | TIPWNLERIT |
| 73 | SVPWNLERTT |
| 66 | SIPWNLERITPPL |
| 65 | SIPWNLERITPPA |
